Assay results: patent US20230174624A1, “FERRITIN VARIANTS WITH INCREASED STABILITY, COMPLEXATION ABILITY AND TRANSFERRIN RECEPTOR AFFINITY” (CELLIS AG, priority 2020, published 2023)
Entries after “also recorded” stand apart in the source; their conditions may differ.

Legend:
[1] = Native PAGE gel after doxorubicin encapsulation and purification; assay type: physicochemical; details: ferritin-dox after encapsulation, concentrated on 10 or 100 kDa Amicon
Excerpt: Native PAGE gel has been performed in order to check the size of the protein after encapsulation and purification.

[2] = tested on: breast and ovarian cancer cell lines: MDA-MB 231, Skov3 and 4T1; assay: Tumour cell viability after co-culture with macrophages carrying doxorubicin packed ferritin; assay type: cell-based; details: 72 h co-culture with macrophages, ferritin cages filled with doxorubicin 1 mg/ml
Description: FIG. 7: Graphs of tumour cell viability after 72 h co-culture with macrophages. The concentration of ferritin cages filled with doxorubicin was the same for each variant of ferritin and was equal to 1 mg/ml.
In vitro experiments have shown that ferritin mutants reveal better cytotoxicity against tumor cells. The doxorubicin packed proteins were inserted into macrophages and then co-cultured with breast and ovarian cancer cell lines: MDA-MB 231, Skov3 and 4T1. The number of viable cells after co-culture was the lowest for the Q11E-Q15E mutant (FIG. 7).

[3] = Native gel after storage in a freezer (-80 degrees Celsius) and thawing; assay type: physicochemical; details: ferritin-dox
siRNA = siRNA association with ferritin (gel); assay type: binding
Description: 1 ml reaction containing 2 mg Ft and 4 ug siRNA in DPBS, pH lowered to values as indicated (2.5, 3.2, 4.4, 5.6 and 6.8, respectively). Samples were incubated 15 min in RT, then NaOH was added to adjust pH to neutral (pH 7). Non-associated free siRNA was removed by 4 centrifugation steps on Amicons with 100 kDa cut-off.

TfR1 = TfR1 (Homo sapiens, UniProt P02786); assay: Surface plasmon resonance binding of ferritin to immobilized his-tagged TFRC receptor
Sequence of TfR1 (P02786 whole entry, species assumed): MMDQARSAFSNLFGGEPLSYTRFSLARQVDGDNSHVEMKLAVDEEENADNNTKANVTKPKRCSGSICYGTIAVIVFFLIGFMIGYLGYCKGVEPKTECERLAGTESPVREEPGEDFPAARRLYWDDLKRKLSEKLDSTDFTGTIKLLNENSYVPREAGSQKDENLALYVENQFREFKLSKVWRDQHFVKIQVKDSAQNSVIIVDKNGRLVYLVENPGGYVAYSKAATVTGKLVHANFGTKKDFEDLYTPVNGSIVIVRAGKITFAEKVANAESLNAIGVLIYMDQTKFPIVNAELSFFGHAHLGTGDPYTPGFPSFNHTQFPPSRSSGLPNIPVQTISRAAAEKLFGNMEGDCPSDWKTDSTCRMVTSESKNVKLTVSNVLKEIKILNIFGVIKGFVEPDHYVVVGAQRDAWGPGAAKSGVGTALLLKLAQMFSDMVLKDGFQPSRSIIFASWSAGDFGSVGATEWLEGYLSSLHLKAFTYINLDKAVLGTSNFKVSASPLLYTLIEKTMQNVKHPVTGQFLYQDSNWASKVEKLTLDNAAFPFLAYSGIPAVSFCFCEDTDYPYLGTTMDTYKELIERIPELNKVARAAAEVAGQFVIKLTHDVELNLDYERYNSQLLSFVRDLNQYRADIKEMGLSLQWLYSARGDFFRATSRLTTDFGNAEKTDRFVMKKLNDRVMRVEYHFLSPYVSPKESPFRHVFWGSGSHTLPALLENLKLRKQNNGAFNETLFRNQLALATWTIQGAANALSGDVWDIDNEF
Description: FIG. 2: Sensorgrams corresponding to the interaction between the immobilized his-tagged TFRC receptor and human ferritin. Panel A: mutant Q11E, panel B: wild type. X-axis: time (s). The same amount of receptor was trapped onto the chip surface (see methods section for details). Five different analyte concentrations (0.0625, 0.125, 0.250, 0.5 and 1 mg/ml) were used. For all analyte concentrations measured, the amount of ferritin bound is higher for the Q11E mutant than for wild-type ferritin.
Binding of wild type and Q11E mutant ferritin to TfR1 was analysed by surface plasmon resonance.

Q11E-Q15E: human H ferritin mutant Q11E Q15E (TRBD SEQ ID NO. 12); in examples 3-8 also K54E, K72E, K87Q, K144E, C91S, C103S (MTTASTSQVRENYHEDSEAA; listed as Homo sapiens)
forms on native gel (24-mers versus aggregates) [1]: present as 24-mers (homogeneous cages)
number of viable cells after co-culture [2]: lowest
stability of cages after storage [3]: still present as 24-mers (homogeneous cages) after storage

Q11E: human H ferritin mutant Q11E (TRBD SEQ ID NO. 05); in examples 3-8 also K54E, K72E, K87Q, K144E, C91S, C103S, C131S (MTTASTSQVRENYHQDSEAA; listed as Homo sapiens)
forms on native gel (24-mers versus aggregates) [1]: present as 24-mers (homogeneous cages)
association with siRNA (siRNA; incubated in pH 2.4 and 3.2): not
association with siRNA (siRNA; incubated in pH range 4.4 to 6.8): associated with siRNA
binding affinity to the CD71 receptor relative to wild type (TfR1): at least fourfold
rate of release from its complex with CD71 receptor (TfR1): slow rate of release
KD (TfR1; global fit, simple 1:1 binding mode, versus wild type): lower KD value
amount of ferritin bound (TfR1; versus wild-type ferritin, analyte 0.0625-1 mg/ml): higher
stability of cages after storage [3]: still present as 24-mers (homogeneous cages) after storage; also recorded: reduces the presence of aggregates and allows the storage of ferritin cages with doxorubicin in the freezer
